In PMC6456224 one finds Kd and fold lower affinity than HMG-box Pf (fold lower affinity than HMG-box Pf) data, which are given here for nine sequences.

The test system of data set [1] is HMG-box Pf (HMG-box domain of HMGB1) (Plasmodium falciparum). The data set can be described thus: MST. Conditions: MST: 50 nM aptamer with probeFAM (4:1), PBS, room temperature, protein 0.1 nM-2 uM, stopped-flow: SELEX buffer (100 mM NaCl, 1.5 mM KCl, 5 mM MgCl2, 6 mM …).
Data set [2] addresses HMG-box Hs (HMG-box domain of human HMGB1) (Homo sapiens) (UniProt P09429). The data set can be described thus: MST. To be noted: MST: 50 nM aptamer with probeFAM (4:1), PBS, room temperature, protein 0.1 nM-2 uM; stopped-flow: SELEX buffer (100 mM NaCl, 1.5 mM KCl, 5 mM MgCl2, 6 mM …).
Chain of UniProt P09429 (P09429 whole entry, the tested form may be a part): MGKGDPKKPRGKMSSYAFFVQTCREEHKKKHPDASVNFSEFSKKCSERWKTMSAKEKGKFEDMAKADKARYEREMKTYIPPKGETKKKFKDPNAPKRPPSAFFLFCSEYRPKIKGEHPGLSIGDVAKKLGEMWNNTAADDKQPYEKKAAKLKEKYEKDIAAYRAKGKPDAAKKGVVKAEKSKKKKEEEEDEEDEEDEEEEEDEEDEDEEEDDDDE

Turning to “TAGGGAAGAGAAGGACATATGATAGCCGTGGATTGCAAAGGGCTGCTGTGGCTTAGTTGAATGTTGACTAGTACATGACCACTTGA [PfR5]”, the dissociation constant Kd in data set [1] came out at 560 nM.

Regarding “TAGGGAAGAGAAGGACATATGATCGCGTGGGTTTGGCTCCGGGCCTGGCGGATGCACGTATAGTTGACTAGTACATGACCACTTGA [PfR6 (PfR6FAM)]”, the dissociation constant Kd in data set [1] is 65 nM; in data set [1] (separate S4 experiment) it was 64 nM.

Sequence “TAGGGAAGAGAAGGACATATGATACCGACTACGTCAACCTGGGTCTGCTCGGGATTGCGGATGTTGACTAGTACATGACCACTTGA [PfR4]” displayed an equilibrium dissociation constant (Kd) in data set [1] of 41 nM.

As for “TAGGGAAGAGAAGGACATATGATGCCGACTACGTCAACCTGGGTCTGCTCGGGATTGCGGATGTTGACTAGTACATGACCACTTGA [PfE1]”, the dissociation constant Kd in data set [1] worked out at 81 nM.

For “TAGGGAAGAGAAGGACATATGATAGATGCAAAGGACTGCTCAGGCTTGCGATGGCAGCTTCATTTGACTAGTACATGACCACTTGA [PfR2]”, the dissociation constant (Kd) in data set [1] amounted to 778 nM.

Consider “TAGGGAAGAGAAGGACATATGATCACTAGGTCTGCTTAGGATTGCGTAAGTGAAAGTCATTTATTGACTAGTACATGACCACTTGA [PfR3]”, for which the Kd in data set [1] came out at 1930 nM.

“TAGGGAAGAGAAGGACATATGATGAGAAGGACTGCTTAGGCTTGCGATGTGAAATCTGTAATCTTGACTAGTACATGACCACTTGA [PfR1]” registered a dissociation constant Kd in data set [1] of 175 nM.

In turn, “TAGGGAAGAGAAGGACATATGATAGTTTACACCAAGGACTGCTTAGGATTGCGTTAGGGTATTTTGACTAGTACATGACCACTTGA [PfE3]” registered a fold lower affinity than HMG-box Pf (fold lower affinity than HMG-box Pf) in data set [2] of 10. The values for the Kd in data set [1] and in data set [1] (separate S4 experiment) were 815 nM and 740 nM, respectively.

As to “TAGGGAAGAGAAGGACATATGATACCGACTACGTCAACTTGGGTCTGCTCGGGATTGCGGATGTTGACTAGTACATGACCACTTGA [PfE2]”, the equilibrium dissociation constant (Kd) in data set [1] worked out at 55 nM.
